# Measurements taken from the supplement of paper PMC11780869.
# Test system: Bacillus subtilis
# Test: cleaved RNA product abundance (RNA/gDNA barcode ratio) relative to median wild-type variant (ratio to wild type); higher = more accumulation of the downstream cleavage product
# Conditions: experiment (reporter, strain, medium): exp 8a: truncated aprE reporter, strain BJT201 with 2% xylose (RNase J1 expressed); cleavage site: glnRA (positions -5 to +31 mutated)
# Summary of the method: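 B. subtilis strains with chromosomally integrated reporter mRNAs (truncated aprE or tetM) holding barcoded, mutagenized RNase Y cleavage-site windows grew in LB at 37°C from OD600 0.0003 to 0.3. Cleaved product abundance is each construct's RNA:gDNA barcode ratio, scaled to the median construct with the unmutated site. It came from sequencing barcodes of gel-selected, reverse-transcribed cleaved RNA and of genomic DNA.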
row,Sequence,cleaved RNA product abundance
1,CGACATGTCCCGCTTCTTTCATTAATCCGTTTGCAACTGTTTTGCTATATACATTTAACTTTTAAGAGGAGGAAT,0.827
2,CGACATGTCCCGCTTCTTTCATTAATCCGTTTGCAACTGTTTTGCTATATACATTTACATTTTAAGAGGAGGAAT,0.626
3,CGACATGTCCCGCTTCTTTCATTAATCCGTTTGCAACTGTTTTGCTATATACATTTACCATTTAAGAGGAGGAAT,0.88
4,CGACATGTCCCGCTTCTTTCATTAATCCGTTTGCAACTGTTTTGCTATATACATTTACCTTTTAAGAGGAGGAAT,0.549
5,CGACATGTCCCGCTTCTTTCATTAATCCGTTTGCAACTGTTTTGCTATATACATTTACGTTTTAAGAGGAGGAAT,0.661
6,CGACATGTCCCGCTTCTTTCATTAATCCGTTTGCAACTGTTTTGCTATATACATTTACTTTTTAAGAGGAGGAAT,0.552
7,CGACATGTCCCGCTTCTTTCATTAATCCGTTTGCAACTGTTTTGCTATCTACATTTACCTTTTAAGAGGAGGAAT,0.203
8,CGACATGTCCCGCTTCTTTCATTAATCCGTTTGCAACTGTTTTTCTATATACATTTACCTTTTAAGAGGAGGAAT,0.768
9,CGACATGTCCCGCTTCTTTCATTAATCCGTTTGCAATTGTTTTGCTATATACATTTACCTTTTAAGAGGAGGAAT,0.536
10,CGACATGTCCCGCTTCTTTCATTAATCCGTTTGCACCTGTTTTGCTATATACATTTACCTTTTAAGAGGAGGAAT,0.295
11,CGACATGTCCCGCTTCTTTCATTAATCCGTTTGCATCTGTTTTGCTATATACATTTACCTTTTAAGAGGAGGAAT,0.274
12,CGACATGTCCCGCTTCTTTCATTAATCCGTTTTCAACTGTTTTGCTATATACATTTACCTTTTAAGAGGAGGAAT,0.247
13,CGACATGTCCCGCTTCTTTCATTAATCCTATAGCAACTGTTTTGCTATATACATTTACCTTTTAAGAGGAGGAAT,0.458
14,CGACATGTCCCGCTTCTTTCATTAATCCTCTAGCAACTGTTTTGCTATATACATTTACCTTTTAAGAGGAGGAAT,0.492
15,CGACATGTCCCGCTTCTTTCATTAATCCTTAAGCAACTGTTTTGCTATATACATTTACCTTTTAAGAGGAGGAAT,0.419
16,CGACATGTCCCGCTTCTTTCATTAATCCTTAGCACCTGTTTTGCTATATACATTATCCTTTTAAGAGGAGGAATT,0.144
17,CGACATGTCCCGCTTCTTTCATTAATCCTTCAGCAACTGTTTTGCTATATACATTTACCTTTTAAGAGGAGGAAT,0.478
18,CGACATGTCCCGCTTCTTTCATTAATCCTTGAGCAACTGTTTTGCTATATACATTTACCTTTTAAGAGGAGGAAT,0.57
19,CGACATGTCCCGCTTCTTTCATTAATCCTTTAAAAAGTGTTTTGCTATATACATTTACCTTTTAAGAGGAGGAAT,0.182
20,CGACATGTCCCGCTTCTTTCATTAATCCTTTAACAACTGTTTTGCTATATACATTTACCTTTTAAGAGGAGGAAT,0.154
21,CGACATGTCCCGCTTCTTTCATTAATCCTTTACCAACTGTTTTGCTATATACATTTACCTTTTAAGAGGAGGAAT,0.125
22,CGACATGTCCCGCTTCTTTCATTAATCCTTTAGAAACTGTTTTGCTATATACATTTACCTTTTAAGAGGAGGAAT,0.18
23,CGACATGTCCCGCTTCTTTCATTAATCCTTTAGCAAATGTTTTGCTATATACATTTACCTTTTAAGAGGAGGAAT,0.608

row,Sequence,cleaved RNA product abundance
1,CGACATGTCCCGCTTCTTTCATTAATCCTTTAGCAACAGTTTTGCTATATACATTTACCTTTTAAGAGGAGGAAT,0.115
2,CGACATGTCCCGCTTCTTTCATTAATCCTTTAGCAACGGTTTTGCTATATACATTTACCTTTTAAGAGGAGGAAT,0.7
3,CGACATGTCCCGCTTCTTTCATTAATCCTTTAGCAACTATTTTGCTATATACATTTACCTTTTAAGAGGAGGAAT,0.828
4,CGACATGTCCCGCTTCTTTCATTAATCCTTTAGCAACTCTTTTGCTATATACATTTACCTTTTAAGAGGAGGAAT,1.2
5,CGACATGTCCCGCTTCTTTCATTAATCCTTTAGCAACTGATTTGCTATATACATTTACCTTTTAAGAGGAGGAAT,0.509
6,CGACATGTCCCGCTTCTTTCATTAATCCTTTAGCAACTGCTTTGCTATATACATTTACCTTTTAAGAGGAGGAAT,0.292
7,CGACATGTCCCGCTTCTTTCATTAATCCTTTAGCAACTGGTTTGCTATATACATTTACCTTTTAAGAGGAGGAAT,0.306
8,CGACATGTCCCGCTTCTTTCATTAATCCTTTAGCAACTGTATTGCTATATACATTTACCTTTTAAGAGGAGGAAT,0.83
9,CGACATGTCCCGCTTCTTTCATTAATCCTTTAGCAACTGTCTTGCTATATACATTTACCTTTTAAGAGGAGGAAT,0.661
10,CGACATGTCCCGCTTCTTTCATTAATCCTTTAGCAACTGTTATGCTATATACATTTACCTTTTAAGAGGAGGAAT,0.471
11,CGACATGTCCCGCTTCTTTCATTAATCCTTTAGCAACTGTTTCGCTATATACATTTACCTTTTAAGAGGAGGAAT,0.282
12,CGACATGTCCCGCTTCTTTCATTAATCCTTTAGCAACTGTTTTACTATATACATTTACCTTTTAAGAGGAGGAAT,0.513
13,CGACATGTCCCGCTTCTTTCATTAATCCTTTAGCAACTGTTTTCCTATATACATTTACCTTTTAAGAGGAGGAAT,0.283
14,CGACATGTCCCGCTTCTTTCATTAATCCTTTAGCAACTGTTTTGATATATACATTTACCTTTTAAGAGGAGGAAT,0.374
15,CGACATGTCCCGCTTCTTTCATTAATCCTTTAGCAACTGTTTTGCAATATACATTTACCTTTTAAGAGGAGGAAT,0.453
16,CGACATGTCCCGCTTCTTTCATTAATCCTTTAGCAACTGTTTTGCCATATACATTTACCTTTTAAGAGGAGGAAT,0.2
17,CGACATGTCCCGCTTCTTTCATTAATCCTTTAGCAACTGTTTTGCGATATACATTTACCTTTTAAGAGGAGGAAT,0.366
18,CGACATGTCCCGCTTCTTTCATTAATCCTTTAGCAACTGTTTTGCGATATACATTTACTTTTTAAGAGGAGGAAT,0.438
19,CGACATGTCCCGCTTCTTTCATTAATCCTTTAGCAACTGTTTTGCTATAAACATTTACCTTTTAAGAGGAGGAAT,0.176
20,CGACATGTCCCGCTTCTTTCATTAATCCTTTAGCAACTGTTTTGCTATACACATTTACCTTTTAAGAGGAGGAAT,0.451
21,CGACATGTCCCGCTTCTTTCATTAATCCTTTAGCAACTGTTTTGCTATATACAATTACCTTTTAAGAGGAGGAAT,0.889
22,CGACATGTCCCGCTTCTTTCATTAATCCTTTAGCAACTGTTTTGCTATATACAGTTACCTTTTAAGAGGAGGAAT,0.604
23,CGACATGTCCCGCTTCTTTCATTAATCCTTTAGCAACTGTTTTGCTATATACATATACCTTTTAAGAGGAGGAAT,0.842
